Values quoted from earlier work, collected in patent publication US20250052762A1, “PEPTIDASE CLEAVABLE SUBSTRATES AND METHODS OF IDENTIFICATION AND USE THEREOF” (Alaunus Biosciences, Inc., priority 2020, published 2025).
“Also recorded” adds a separate entry of the source. Square brackets hold non-standard residues; d marks the D form. Ends that are not written are not given here. * marks the point of attachment. MeOSuc = COC(=O)CCC(=O)*; 2Abz = Nc1ccccc1C(=O)O; dnp = not defined here; SBn = c1ccc(CS*)cc1

Columns and labels:
granzyme B = granzyme B (Homo sapiens, UniProt P10144); conditions: for measured catalytic efficiency: candidate natural substrates, fluorescence assay (Boivin et al., 2012)
granzyme B, sequence (P10144 21-247): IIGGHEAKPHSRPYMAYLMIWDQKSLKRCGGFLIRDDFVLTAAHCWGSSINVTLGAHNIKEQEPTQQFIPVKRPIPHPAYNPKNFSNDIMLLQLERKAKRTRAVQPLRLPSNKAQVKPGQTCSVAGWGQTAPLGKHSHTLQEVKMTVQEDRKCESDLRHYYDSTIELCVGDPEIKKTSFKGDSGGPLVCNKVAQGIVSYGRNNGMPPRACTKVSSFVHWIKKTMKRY

MMP14 = MMP14 (Homo sapiens, UniProt P50281); conditions: for Michaelis constant (KM): magnitude in words
neutrophil elastase = molecular target: T1, neutrophil elastase (Homo sapiens, UniProt P08246)
T1 sequence (P08246 30-267): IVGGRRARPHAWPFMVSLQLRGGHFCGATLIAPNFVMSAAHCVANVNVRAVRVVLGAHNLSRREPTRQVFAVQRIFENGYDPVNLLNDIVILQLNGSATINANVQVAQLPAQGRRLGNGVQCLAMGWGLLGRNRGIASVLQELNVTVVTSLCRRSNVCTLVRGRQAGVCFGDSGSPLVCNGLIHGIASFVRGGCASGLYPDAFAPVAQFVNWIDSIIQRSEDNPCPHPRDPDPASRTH

[1] = magnitude in words, top-most active substrates in BRENDA database
[2] = top-most active substrates in BRENDA database

## 2-aminobenzoyl-IEPDSSMESK-dnp ([2Abz]IEPDSSMESK-dnp; reading uncertain; also: printed as 2-aminobenzoyl-IEPDSSMESK-dnp) [fluorescent tool substrate for granzyme B]
Granzyme B; estimated from KM and kcat, fluorescence assay (Sun et al., 2001)
  estimated catalytic efficiency: 758 mM⁻¹ s⁻¹
Granzyme B; [1]
  Michaelis constant (KM): micromolar
Granzyme B; [2]
  turnover number (kcat): 1 to 5 s⁻¹

## collagen I alpha-1: collagen I alpha-1 chain, natural substrate of MMP14
MMP14; BRENDA database
  Michaelis constant (KM): piocomolar; also recorded: picomolar

## collagen I alpha-2: collagen I alpha-2 chain, natural substrate of MMP14
MMP14; BRENDA database
  Michaelis constant (KM): piocomolar; also recorded: picomolar

## methoxycoumarin-4-acetyl-Lys-Pro-Leu-Gly-Leu-Lys (2,4-dinitrophenyl)-Ala-Arg-NH2 ({methoxycoumarin‑4‑acetyl}-KPLGLK(2,4‑dinitrophenyl)AR-NH2; not fully specified; printed as methoxycoumarin-4-acetyl-Lys-Pro-Leu-Gly-Leu-Lys (2,4-dinitrophenyl)-Ala-Arg-NH₂)
MMP14; measured by fluorescence assay, BRENDA database
  catalytic efficiency: 550 to 2429 mM⁻¹ s⁻¹
MMP14; reported in BRENDA database
  turnover number: 0.33 to 6.8 s⁻¹

## methoxysuccinyl-Ala-Ala-Pro-Val-thiobenzyl ester (MeOSuc-AAPV-SBn; SMILES COC(=O)CCC(=O)N[C@@H](C)C(=O)N[C@@H](C)C(=O)N1CCC[C@H]1C(=O)N[C@H](C(=O)SCc1ccccc1)C(C)C) [fluorescent tool substrate for neutrophil elastase]
Neutrophil elastase; estimated from KM and kcat, fluorescence assay (Stein et al., 1987)
  estimated catalytic efficiency: 9565 mM⁻¹ s⁻¹
Neutrophil elastase; [1]
  Michaelis constant (KM): micromolar
Neutrophil elastase; [2]
  turnover number (kcat): up to 22 s^−1

B1: biglycan: candidate natural substrate of granzyme B (protein, UniProt P21810 38-368, looked up)
Biglycan: DEEASGADTSGVLDPDSVTPTYSAMCPFGCHCHLRVVQCSDLGLKSVPKEISPDTTLLDLQNNDISELRKDDFKGLQHLYALVLVNNKISKIHEKAFSPLRKLQKLYISKNHLVEIPPNLPSSLVELRIHDNRIRKVPKGVFSGLRNMNCIEMGGNPLENSGFEPGAFDGLKLNYLRISEAKLTGIPKDLPETLNELHLDHNKIQAIELEDLLRYSKLYRLGLGHNQIRMIENGSLSFLPTLRELHLDNNKLARVPSGLPDLKLLQVVYLHSNNITKVGVNDFCPMGFGVKRAYYNGISLFNNPVPYWEVQPATFRCVTDRLAIQFGNYKK
Granzyme B
  measured catalytic efficiency: 1.7 mM⁻¹ s⁻¹

B2: decorin: candidate natural substrate of granzyme B (protein, UniProt P07585 31-359, looked up)
Decorin: DEASGIGPEVPDDRDFEPSLGPVCPFRCQCHLRVVQCSDLGLDKVPKDLPPDTTLLDLQNNKITEIKDGDFKNLKNLHALILVNNKISKVSPGAFTPLVKLERLYLSKNQLKELPEKMPKTLQELRAHENEITKVRKVTFNGLNQMIVIELGTNPLKSSGIENGAFQGMKKLSYIRIADTNITSIPQGLPPSLTELHLDGNKISRVDAASLKGLNNLAKLGLSFNSISAVDNGSLANTPHLRELHLDNNKLTRVPGGLAEHKYIQVVYLHNNNISVVGSSDFCPPGHNTKKASYSGVSLFSNPVQYWEIQPSTFRCVYVRSAIQLGNYK
Granzyme B
  measured catalytic efficiency: 1 mM⁻¹ s⁻¹

B3: beta-glycan: candidate natural substrate of granzyme B (protein, UniProt Q03167 21-851, looked up)
Transforming growth factor …: GPEPGALCELSPVSASHPVQALMESFTVLSGCASRGTTGLPQEVHVLNLRTAGQGPGQLQREVTLHLNPISSVHIHHKSVVFLLNSPHPLVWHLKTERLATGVSRLFLVSEGSVVQFSSANFSLTAETEERNFPHGNEHLLNWARKEYGAVTSFTELKIARNIYIKVGEDQVFPPKCNIGKNFLSLNYLAEYLQPKAAEGCVMSSQPQNEEVHIIELITPNSNPYSAFQVDITIDIRPSQEDLEVVKNLILILKCKKSVNWVIKSFDVKGSLKIIAPNSIGFGKESERSMTMTKSIRDDIPSTQGNLVKWALDNGYSPITSYTMAPVANRFHLRLENNAEEMGDEEVHTIPPELRILLDPGALPALQNPPIRGGEGQNGGLPFPFPDISRRVWNEEGEDGLPRPKDPVIPSIQLFPGLREPEEVQGSVDIALSVKCDNEKMIVAVEKDSFQASGYSGMDVTLLDPTCKAKMNGTHFVLESPLNGCGTRPRWSALDGVVYYNSIVIQVPALGDSSGWPDGYEDLESGDNGFPGDMDEGDASLFTRPEIVVFNCSLQQVRNPSSFQEQPHGNITFNMELYNTDLFLVPSQGVFSVPENGHVYVEVSVTKAEQELGFAIQTCFISPYSNPDRMSHYTIIENICPKDESVKFYSPKRVHFPIPQADMDKKRFSFVFKPVFNTSLLFLQCELTLCTKMEKHPQKLPKCVPPDEACTSLDASIIWAMMQNKKTFTKPLAVIHHEAESKEKGPSMKEPNPISPPIFHGLDTLTVMGIAFAAFVIGALLTGALWYIYSHTGETAGRQQVPTSPPASENSSAAHSIGSTQSTPCSSSSTA
Granzyme B
  measured catalytic efficiency: 5.9 mM⁻¹ s⁻¹
